Measurements as given in patent US20240067696A1 (ZEALAND PHARMA A S, published 2024).
Non-standard residues stand in square brackets, D forms with d. Dab = NCC[C@H](N)C(=O)O; Aib = CC(C)(N)C(=O)O

B1: Compound 15 (peptide)
peptide: H-HSQGTFTSDYSKYLD[Aib]ARAESFVKWLEST-OH
SMILES: CC(C)C[C@H](NC(=O)[C@H](Cc1c[nH]c2ccccc12)NC(=O)[C@H](CCCCN)NC(=O)[C@@H](NC(=O)[C@H](Cc1ccccc1)NC(=O)[C@H](CO)NC(=O)[C@H](CCC(=O)O)NC(=O)[C@H](C)NC(=O)[C@H](CCCNC(=N)N)NC(=O)[C@H](C)NC(=O)C(C)(C)NC(=O)[C@H](CC(=O)O)NC(=O)[C@H](CC(C)C)NC(=O)[C@H](Cc1ccc(O)cc1)NC(=O)[C@H](CCCCN)NC(=O)[C@H](CO)NC(=O)[C@H](Cc1ccc(O)cc1)NC(=O)[C@H](CC(=O)O)NC(=O)[C@H](CO)NC(=O)[C@@H](NC(=O)[C@H](Cc1ccccc1)NC(=O)[C@@H](NC(=O)CNC(=O)[C@H](CCC(N)=O)NC(=O)[C@H](CO)NC(=O)[C@@H](N)Cc1c[nH]cn1)[C@@H](C)O)[C@@H](C)O)C(C)C)C(=O)N[C@@H](CCC(=O)O)C(=O)N[C@@H](CO)C(=O)N[C@H](C(=O)O)[C@@H](C)O
B2: Compound 12 (peptide)
peptide: H-HSQGTFTSDYSKYLD[Aib]ARAEDFVKWLEST-OH
SMILES: CC(C)C[C@H](NC(=O)[C@H](Cc1c[nH]c2ccccc12)NC(=O)[C@H](CCCCN)NC(=O)[C@@H](NC(=O)[C@H](Cc1ccccc1)NC(=O)[C@H](CC(=O)O)NC(=O)[C@H](CCC(=O)O)NC(=O)[C@H](C)NC(=O)[C@H](CCCNC(=N)N)NC(=O)[C@H](C)NC(=O)C(C)(C)NC(=O)[C@H](CC(=O)O)NC(=O)[C@H](CC(C)C)NC(=O)[C@H](Cc1ccc(O)cc1)NC(=O)[C@H](CCCCN)NC(=O)[C@H](CO)NC(=O)[C@H](Cc1ccc(O)cc1)NC(=O)[C@H](CC(=O)O)NC(=O)[C@H](CO)NC(=O)[C@@H](NC(=O)[C@H](Cc1ccccc1)NC(=O)[C@@H](NC(=O)CNC(=O)[C@H](CCC(N)=O)NC(=O)[C@H](CO)NC(=O)[C@@H](N)Cc1c[nH]cn1)[C@@H](C)O)[C@@H](C)O)C(C)C)C(=O)N[C@@H](CCC(=O)O)C(=O)N[C@@H](CO)C(=O)N[C@H](C(=O)O)[C@@H](C)O
B3: Compound 23 (peptide)
peptide: H-HSQGTFTSDVSKYLD[Aib]ARAESFVKWLEST-OH
SMILES: CC(C)C[C@H](NC(=O)[C@H](Cc1c[nH]c2ccccc12)NC(=O)[C@H](CCCCN)NC(=O)[C@@H](NC(=O)[C@H](Cc1ccccc1)NC(=O)[C@H](CO)NC(=O)[C@H](CCC(=O)O)NC(=O)[C@H](C)NC(=O)[C@H](CCCNC(=N)N)NC(=O)[C@H](C)NC(=O)C(C)(C)NC(=O)[C@H](CC(=O)O)NC(=O)[C@H](CC(C)C)NC(=O)[C@H](Cc1ccc(O)cc1)NC(=O)[C@H](CCCCN)NC(=O)[C@H](CO)NC(=O)[C@@H](NC(=O)[C@H](CC(=O)O)NC(=O)[C@H](CO)NC(=O)[C@@H](NC(=O)[C@H](Cc1ccccc1)NC(=O)[C@@H](NC(=O)CNC(=O)[C@H](CCC(N)=O)NC(=O)[C@H](CO)NC(=O)[C@@H](N)Cc1c[nH]cn1)[C@@H](C)O)[C@@H](C)O)C(C)C)C(C)C)C(=O)N[C@@H](CCC(=O)O)C(=O)N[C@@H](CO)C(=O)N[C@H](C(=O)O)[C@@H](C)O
B4: Compound 25 (peptide)
peptide: H-HSQGTFTSDYSKYLD[Aib]RRAESFVKWLEST-OH
SMILES: CC(C)C[C@H](NC(=O)[C@H](Cc1c[nH]c2ccccc12)NC(=O)[C@H](CCCCN)NC(=O)[C@@H](NC(=O)[C@H](Cc1ccccc1)NC(=O)[C@H](CO)NC(=O)[C@H](CCC(=O)O)NC(=O)[C@H](C)NC(=O)[C@H](CCCNC(=N)N)NC(=O)[C@H](CCCNC(=N)N)NC(=O)C(C)(C)NC(=O)[C@H](CC(=O)O)NC(=O)[C@H](CC(C)C)NC(=O)[C@H](Cc1ccc(O)cc1)NC(=O)[C@H](CCCCN)NC(=O)[C@H](CO)NC(=O)[C@H](Cc1ccc(O)cc1)NC(=O)[C@H](CC(=O)O)NC(=O)[C@H](CO)NC(=O)[C@@H](NC(=O)[C@H](Cc1ccccc1)NC(=O)[C@@H](NC(=O)CNC(=O)[C@H](CCC(N)=O)NC(=O)[C@H](CO)NC(=O)[C@@H](N)Cc1c[nH]cn1)[C@@H](C)O)[C@@H](C)O)C(C)C)C(=O)N[C@@H](CCC(=O)O)C(=O)N[C@@H](CO)C(=O)N[C@H](C(=O)O)[C@@H](C)O
B5: Compound 22 (peptide)
peptide: H-HSQ[dA]TFTSDYSKYLD[Aib]ARAESFVKWLEST-OH
SMILES: CC(C)C[C@H](NC(=O)[C@H](Cc1c[nH]c2ccccc12)NC(=O)[C@H](CCCCN)NC(=O)[C@@H](NC(=O)[C@H](Cc1ccccc1)NC(=O)[C@H](CO)NC(=O)[C@H](CCC(=O)O)NC(=O)[C@H](C)NC(=O)[C@H](CCCNC(=N)N)NC(=O)[C@H](C)NC(=O)C(C)(C)NC(=O)[C@H](CC(=O)O)NC(=O)[C@H](CC(C)C)NC(=O)[C@H](Cc1ccc(O)cc1)NC(=O)[C@H](CCCCN)NC(=O)[C@H](CO)NC(=O)[C@H](Cc1ccc(O)cc1)NC(=O)[C@H](CC(=O)O)NC(=O)[C@H](CO)NC(=O)[C@@H](NC(=O)[C@H](Cc1ccccc1)NC(=O)[C@@H](NC(=O)[C@@H](C)NC(=O)[C@H](CCC(N)=O)NC(=O)[C@H](CO)NC(=O)[C@@H](N)Cc1c[nH]cn1)[C@@H](C)O)[C@@H](C)O)C(C)C)C(=O)N[C@@H](CCC(=O)O)C(=O)N[C@@H](CO)C(=O)N[C@H](C(=O)O)[C@@H](C)O
B6: Compound 20 (peptide)
peptide: H-HAQGTFTSDYSKYLD[Aib]ARAESFVKWLEST-OH
SMILES: CC(C)C[C@H](NC(=O)[C@H](Cc1c[nH]c2ccccc12)NC(=O)[C@H](CCCCN)NC(=O)[C@@H](NC(=O)[C@H](Cc1ccccc1)NC(=O)[C@H](CO)NC(=O)[C@H](CCC(=O)O)NC(=O)[C@H](C)NC(=O)[C@H](CCCNC(=N)N)NC(=O)[C@H](C)NC(=O)C(C)(C)NC(=O)[C@H](CC(=O)O)NC(=O)[C@H](CC(C)C)NC(=O)[C@H](Cc1ccc(O)cc1)NC(=O)[C@H](CCCCN)NC(=O)[C@H](CO)NC(=O)[C@H](Cc1ccc(O)cc1)NC(=O)[C@H](CC(=O)O)NC(=O)[C@H](CO)NC(=O)[C@@H](NC(=O)[C@H](Cc1ccccc1)NC(=O)[C@@H](NC(=O)CNC(=O)[C@H](CCC(N)=O)NC(=O)[C@H](C)NC(=O)[C@@H](N)Cc1c[nH]cn1)[C@@H](C)O)[C@@H](C)O)C(C)C)C(=O)N[C@@H](CCC(=O)O)C(=O)N[C@@H](CO)C(=O)N[C@H](C(=O)O)[C@@H](C)O
B7: Compound 24 (peptide)
peptide: H-HS[Dab](Ac)GTFTSDYSKYLD[Aib]ARAESFVKWLEST-NH2
SMILES: CC(=O)NCC[C@H](NC(=O)[C@H](CO)NC(=O)[C@@H](N)Cc1c[nH]cn1)C(=O)NCC(=O)N[C@H](C(=O)N[C@@H](Cc1ccccc1)C(=O)N[C@H](C(=O)N[C@@H](CO)C(=O)N[C@@H](CC(=O)O)C(=O)N[C@@H](Cc1ccc(O)cc1)C(=O)N[C@@H](CO)C(=O)N[C@@H](CCCCN)C(=O)N[C@@H](Cc1ccc(O)cc1)C(=O)N[C@@H](CC(C)C)C(=O)N[C@@H](CC(=O)O)C(=O)NC(C)(C)C(=O)N[C@@H](C)C(=O)N[C@@H](CCCNC(=N)N)C(=O)N[C@@H](C)C(=O)N[C@@H](CCC(=O)O)C(=O)N[C@@H](CO)C(=O)N[C@@H](Cc1ccccc1)C(=O)N[C@H](C(=O)N[C@@H](CCCCN)C(=O)N[C@@H](Cc1c[nH]c2ccccc12)C(=O)N[C@@H](CC(C)C)C(=O)N[C@@H](CCC(=O)O)C(=O)N[C@@H](CO)C(=O)N[C@H](C(N)=O)[C@@H](C)O)C(C)C)[C@@H](C)O)[C@@H](C)O

Target: human glucagon receptor (human, UniProt P47871 26-477)
Assay: cell-based or functional assay

Chain of human glucagon receptor (P47871 26-477): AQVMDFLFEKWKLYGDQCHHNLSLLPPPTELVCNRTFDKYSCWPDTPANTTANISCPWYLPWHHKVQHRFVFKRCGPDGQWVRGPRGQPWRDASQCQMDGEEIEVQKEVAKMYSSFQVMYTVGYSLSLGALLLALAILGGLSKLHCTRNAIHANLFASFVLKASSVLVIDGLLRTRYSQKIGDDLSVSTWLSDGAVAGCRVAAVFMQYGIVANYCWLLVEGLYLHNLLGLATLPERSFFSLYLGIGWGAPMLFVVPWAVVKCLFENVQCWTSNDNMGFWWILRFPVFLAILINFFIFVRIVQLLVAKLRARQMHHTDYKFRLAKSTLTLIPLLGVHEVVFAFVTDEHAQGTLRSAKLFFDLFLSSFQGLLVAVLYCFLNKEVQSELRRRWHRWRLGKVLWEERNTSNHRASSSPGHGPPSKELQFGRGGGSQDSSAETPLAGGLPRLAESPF

Binder	GCG-R EC50 in vitro [nM] (cAMP, AlphaScreen, HEK293 cells expressing human Glucagon-R)
H-HSQGTFTSDYSKYLDEARAKSFVEWLEKT-OH [Compound 27]	0.063
H-HSQGTFTSDYSKYLDLARAEDFVKWLEST-OH [Compound 17]	0.029
B1	0.03
H-HSQGTFTSDYSKYLDSARAEDFVKWLEET-OH [Compound 2]	0.18
H-HSQGTFTSDYSKYLDVARAESFVKWLEST-OH [Compound 19]	0.054
H-HSQGTFTSDYSKYLDSARAEDFVSWLEST-OH [Compound 10]	0.32
H-HSQGTFTSDYSKYLESARAESFVKWLEST-OH [Compound 16]	0.39
H-HSQGTFTSDYSKYLDEARAKSFVEWLEST-OH [Compound 28]	0.035
B2	0.03
B3	0.16
H-HSQGTFTSDYSKYLDSARAEEFVKWLEST-OH [Compound 9]	0.03
H-HSQGTFTSDYSKYLDSARAEDFVKWLES-OH [Compound 13]	0.07
B4	0.0066
H-HSQGTFTSDYSKYLDEARAEDFVKWLEST-OH [Compound 14]	0.15
H-HSQGTFTSDLSKYLDSARAEDFVKWLEST-OH [Compound 11]	0.11
H-HSQGTFTSDYSKYLDSARAESFVKWLEST-OH [Compound 1]	0.064
H-HSQGTFTSDYSKYLDKRRAEDFVSWLEST-OH [Compound 18]	0.026
B5	0.024
B6	0.24
B7	0.0078
